Data taken from patent US9260500B2, “Peptide and use thereof” (Takeda Pharmaceutical Company Limited, priority 2009, dated 2016).
Non-standard residues stand in square brackets, D forms with d. *: point of attachment. X7 = (tetrahydro-2H-pyran-4-yl)carbamoyl, O=C(NC1CCOCC1)*; (3-carboxypropyl)carbamoyl = O=C(O)CCCNC(=O)*; Tetrahydropyran4carbonyl = O=C(C1CCOCC1)*; 2Nal = N[C@@H](Cc1ccc2ccccc2c1)C(=O)O; Imidazole4carbonyl = O=C(c1cnc[nH]1)*; αMeF = C[C@](N)(Cc1ccccc1)C(=O)O; 4Pal = N[C@@H](Cc1ccncc1)C(=O)O; dHyp = O=C(O)[C@H]1C[C@H](O)CN1; Cha = N[C@@H](CC1CCCCC1)C(=O)O; Isonicotinoyl = O=C(c1ccncc1)*; Iva = CC[C@](C)(N)C(=O)O; Nle = CCCC[C@H](N)C(=O)O; Aib = CC(C)(N)C(=O)O

Assays:
human Y2 receptor [1] = target: T1, human Y2 receptor (Homo sapiens, UniProt P49146); experiment: Receptor Binding Assay (RBA) for Human Y2, [125I]-PYY displacement on hY2R/CHO membrane fraction; conditions: IC50 of test compound/IC50 of PYY(3-36) (PYY(3-36) taken as 1)
T1 construct: expressed in transfected cells; membrane fraction
T1 sequence (P49146 1-381): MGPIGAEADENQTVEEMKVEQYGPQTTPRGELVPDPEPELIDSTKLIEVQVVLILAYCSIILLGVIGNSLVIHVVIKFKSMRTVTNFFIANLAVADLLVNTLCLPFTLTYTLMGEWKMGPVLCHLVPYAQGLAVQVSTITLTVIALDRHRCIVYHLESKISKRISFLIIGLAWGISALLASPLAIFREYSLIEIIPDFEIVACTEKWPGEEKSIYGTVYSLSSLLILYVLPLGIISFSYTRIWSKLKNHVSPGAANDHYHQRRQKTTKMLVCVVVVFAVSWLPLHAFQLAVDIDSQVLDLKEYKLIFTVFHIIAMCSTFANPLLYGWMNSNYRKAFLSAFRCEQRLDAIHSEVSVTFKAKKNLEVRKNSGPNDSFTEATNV
In short: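 hY2R stably expressed in CHO/dhfr− cells; membrane fraction prepared from cells disrupted in 10 mM NaHCO3, 5 mM EDTA buffer with protease inhibitors. Binding read as displacement of [125I]-PYY.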

human Y2 receptor [2] = target: T1, human Y2 receptor; experiment: Human Y2 Receptor G Protein Binding Assay (GBA), [35S]GTPγS; type: biochemical; conditions: EC50 of test compound/EC50 of PYY(3-36) (PYY3-36 taken as 1), hY2R/CHO membrane fraction
In short: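 Agonism measured as [35S]GTPγS binding, read by GF/C filtration and scintillation counting after 120 min at room temperature, using human Y2 membranes at 1 μg protein/mL in pH 7.4 Tris/MgCl2/NaCl/GDP buffer. Compound serially diluted 100 μM–1 nM; EC50 normalized to PYY(3-36) (ratio = compound/PYY).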

male C57EL/6J mice = experiment: 3-Days Continuous Subcutaneous Administration Test-1 (food intake suppressing activity); type: in vivo, mouse; conditions: 0.03 mg/kg/day, subcutaneous Alzet pump, food consumption over 3 days; relative to food intake suppression rate for PYY(3-36) (1 mg/kg/day) taken as 100%
In short: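 Male […] mice, 12-13 weeks, received compound at 0.03 mg/kg/day by subcutaneous osmotic pump (50% DMSO vehicle), housed singly with free food access. Food consumed over 3 days measured; suppression expressed relative to PYY(3-36) (1 mg/kg/day) set as 100%.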

| Substance | RBA IC50 Ratio (human Y2 receptor [1]) | GBA EC50 Ratio (human Y2 receptor [2]) | food intake suppression rate (%) (male C57EL/6J mice) |
| --- | --- | --- | --- |
| 4-Imidazolecarbonyl-[D-Hyp24, Iva25, Pya(4)26, Cha27,36, αMePhe28, Lys30, Aib31]-PYY(23-36) (Imidazole4carbonyl-S[dHyp][Iva][4Pal][Cha][αMeF]NK[Aib]TRQR[Cha]-NH2; SMILES CC[C@](C)(NC(=O)[C@H]1C[C@H](O)CN1C(=O)[C@H](CO)NC(=O)c1cnc[nH]1)C(=O)N[C@@H](Cc1ccncc1)C(=O)N[C@@H](CC1CCCCC1)C(=O)N[C@@](C)(Cc1ccccc1)C(=O)N[C@@H](CC(N)=O)C(=O)N[C@@H](CCCCN)C(=O)NC(C)(C)C(=O)N[C@H](C(=O)N[C@@H](CCCNC(=N)N)C(=O)N[C@@H](CCC(N)=O)C(=O)N[C@@H](CCCNC(=N)N)C(=O)N[C@@H](CC1CCCCC1)C(N)=O)[C@@H](C)O) [compound No. 343] | 0.65 | 1.0 | 15 |
| (Tetrahydro-2H-pyran-4-yl)carbonyl-[D-Pro24, Iva25, Pya(4)26, Cha27,36, Aib28,31, Lys30]-PYY(23-36) (Tetrahydropyran4carbonyl-S[dP][Iva][4Pal][Cha][Aib]NK[Aib]TRQR[Cha]-NH2; SMILES CC[C@](C)(NC(=O)[C@H]1CCCN1C(=O)[C@H](CO)NC(=O)C1CCOCC1)C(=O)N[C@@H](Cc1ccncc1)C(=O)N[C@@H](CC1CCCCC1)C(=O)NC(C)(C)C(=O)N[C@@H](CC(N)=O)C(=O)N[C@@H](CCCCN)C(=O)NC(C)(C)C(=O)N[C@H](C(=O)N[C@@H](CCCNC(=N)N)C(=O)N[C@@H](CCC(N)=O)C(=O)N[C@@H](CCCNC(=N)N)C(=O)N[C@@H](CC1CCCCC1)C(N)=O)[C@@H](C)O) [compound No. 342] | 3.3 | 1.9 | 36 |
| (Tetrahydro-2H-pyran-4-yl)carbamoyl-[D-Pro24, Iva25, Pya(4)26, Cha27,36, Aib28,31, Lys30]-PYY(23-36) (X7-S[dP][Iva][4Pal][Cha][Aib]NK[Aib]TRQR[Cha]-NH2; SMILES CC[C@](C)(NC(=O)[C@H]1CCCN1C(=O)[C@H](CO)NC(=O)NC1CCOCC1)C(=O)N[C@@H](Cc1ccncc1)C(=O)N[C@@H](CC1CCCCC1)C(=O)NC(C)(C)C(=O)N[C@@H](CC(N)=O)C(=O)N[C@@H](CCCCN)C(=O)NC(C)(C)C(=O)N[C@H](C(=O)N[C@@H](CCCNC(=N)N)C(=O)N[C@@H](CCC(N)=O)C(=O)N[C@@H](CCCNC(=N)N)C(=O)N[C@@H](CC1CCCCC1)C(N)=O)[C@@H](C)O) [compound No. 330] | 1.7 | 1.8 | 36 |
| 4-Pyridinecarbonyl-[D-Hyp24, Iva25,28, Pya(4)26, Cha27,36, Lys30, Aib31]-PYY (23-36) (Isonicotinoyl-S[dHyp][Iva][4Pal][Cha][Iva]NK[Aib]TRQR[Cha]-NH2; SMILES CC[C@](C)(NC(=O)[C@H](CC1CCCCC1)NC(=O)[C@H](Cc1ccncc1)NC(=O)[C@](C)(CC)NC(=O)[C@H]1C[C@H](O)CN1C(=O)[C@H](CO)NC(=O)c1ccncc1)C(=O)N[C@@H](CC(N)=O)C(=O)N[C@@H](CCCCN)C(=O)NC(C)(C)C(=O)N[C@H](C(=O)N[C@@H](CCCNC(=N)N)C(=O)N[C@@H](CCC(N)=O)C(=O)N[C@@H](CCCNC(=N)N)C(=O)N[C@@H](CC1CCCCC1)C(N)=O)[C@@H](C)O) [compound No. 334] | 1.3 | 1.6 | 14 |
| Ac-[D-Pro24, Iva25,28, Pya(4)26, Cha27,36, Lys30, Aib31]-PYY(23-36) (Ac-S[dP][Iva][4Pal][Cha][Iva]NK[Aib]TRQR[Cha]-NH2; SMILES CC[C@](C)(NC(=O)[C@H](CC1CCCCC1)NC(=O)[C@H](Cc1ccncc1)NC(=O)[C@](C)(CC)NC(=O)[C@H]1CCCN1C(=O)[C@H](CO)NC(C)=O)C(=O)N[C@@H](CC(N)=O)C(=O)N[C@@H](CCCCN)C(=O)NC(C)(C)C(=O)N[C@H](C(=O)N[C@@H](CCCNC(=N)N)C(=O)N[C@@H](CCC(N)=O)C(=O)N[C@@H](CCCNC(=N)N)C(=O)N[C@@H](CC1CCCCC1)C(N)=O)[C@@H](C)O) [compound No. 296] | 1.1 | 1.0 | 36 |
| Ac-[D-Pro24, Arg(Me)25, Pya(4)26, Cha27,36, Aib28,31, Lys30]-PYY(23-36) [compound No. 319] | 1.1 | 1.3 | 40 |

Now from value to substance, other results behind:

| RBA IC50 Ratio (human Y2 receptor [1]) | GBA EC50 Ratio (human Y2 receptor [2]) | Substance | food intake suppression rate (%) (male C57EL/6J mice) |
| --- | --- | --- | --- |
| 1.3 | 1.3 | 4-Imidazolecarbonyl-[Glu23, D-Pro24, Pya(4)26, Cha27,36, Aib28,31, Lys30]-PYY(23-36) (Imidazole4carbonyl-E[dP]R[4Pal][Cha][Aib]NK[Aib]TRQR[Cha]-NH2; SMILES C[C@@H](O)[C@H](NC(=O)C(C)(C)NC(=O)[C@H](CCCCN)NC(=O)[C@H](CC(N)=O)NC(=O)C(C)(C)NC(=O)[C@H](CC1CCCCC1)NC(=O)[C@H](Cc1ccncc1)NC(=O)[C@H](CCCNC(=N)N)NC(=O)[C@H]1CCCN1C(=O)[C@H](CCC(=O)O)NC(=O)c1cnc[nH]1)C(=O)N[C@@H](CCCNC(=N)N)C(=O)N[C@@H](CCC(N)=O)C(=O)N[C@@H](CCCNC(=N)N)C(=O)N[C@@H](CC1CCCCC1)C(N)=O) [compound No. 216] | 36 |
| 1.2 | 0.97 | (3-carboxypropyl)carbamoyl-[D-Pro24, Pya(4)26, Cha27,36, Aib28,31, Lys30]-PYY(23-36) ({(3-carboxypropyl)carbamoyl}-S[dP]R[4Pal][Cha][Aib]NK[Aib]TRQR[Cha]-NH2; SMILES C[C@@H](O)[C@H](NC(=O)C(C)(C)NC(=O)[C@H](CCCCN)NC(=O)[C@H](CC(N)=O)NC(=O)C(C)(C)NC(=O)[C@H](CC1CCCCC1)NC(=O)[C@H](Cc1ccncc1)NC(=O)[C@H](CCCNC(=N)N)NC(=O)[C@H]1CCCN1C(=O)[C@H](CO)NC(=O)NCCCC(=O)O)C(=O)N[C@@H](CCCNC(=N)N)C(=O)N[C@@H](CCC(N)=O)C(=O)N[C@@H](CCCNC(=N)N)C(=O)N[C@@H](CC1CCCCC1)C(N)=O) [compound No. 293] | 51 |
| 7.2 | 4.0 | Ac-[D-Pro24, Pya(4)26, Nal(2)27, Aib28,31, Lys30, Cha36]-PYY(23-36) (Ac-S[dP]R[4Pal][2Nal][Aib]NK[Aib]TRQR[Cha]-NH2; SMILES CC(=O)N[C@@H](CO)C(=O)N1CCC[C@@H]1C(=O)N[C@@H](CCCNC(=N)N)C(=O)N[C@@H](Cc1ccncc1)C(=O)N[C@@H](Cc1ccc2ccccc2c1)C(=O)NC(C)(C)C(=O)N[C@@H](CC(N)=O)C(=O)N[C@@H](CCCCN)C(=O)NC(C)(C)C(=O)N[C@H](C(=O)N[C@@H](CCCNC(=N)N)C(=O)N[C@@H](CCC(N)=O)C(=O)N[C@@H](CCCNC(=N)N)C(=O)N[C@@H](CC1CCCCC1)C(N)=O)[C@@H](C)O) [compound No. 307] | 22 |
| 1.7 | 1.2 | 4-Imidazolecarbonyl-[D-Pro24, Nle25, Pya(4)26, Cha27,36, Aib28,31, Lys30]-PYY(23-36) (Imidazole4carbonyl-S[dP][Nle][4Pal][Cha][Aib]NK[Aib]TRQR[Cha]-NH2; SMILES CCCC[C@H](NC(=O)[C@H]1CCCN1C(=O)[C@H](CO)NC(=O)c1cnc[nH]1)C(=O)N[C@@H](Cc1ccncc1)C(=O)N[C@@H](CC1CCCCC1)C(=O)NC(C)(C)C(=O)N[C@@H](CC(N)=O)C(=O)N[C@@H](CCCCN)C(=O)NC(C)(C)C(=O)N[C@H](C(=O)N[C@@H](CCCNC(=N)N)C(=O)N[C@@H](CCC(N)=O)C(=O)N[C@@H](CCCNC(=N)N)C(=O)N[C@@H](CC1CCCCC1)C(N)=O)[C@@H](C)O) [compound No. 302] | 22 |
| 0.8 | 1.3 | Ac-[Glu23, D-Hyp24, Cha27,28,36, Lys30, Aib31]-PYY(23-36) (Ac-E[dHyp]RH[Cha][Cha]NK[Aib]TRQR[Cha]-NH2; SMILES CC(=O)N[C@@H](CCC(=O)O)C(=O)N1C[C@@H](O)C[C@@H]1C(=O)N[C@@H](CCCNC(=N)N)C(=O)N[C@@H](Cc1c[nH]cn1)C(=O)N[C@@H](CC1CCCCC1)C(=O)N[C@@H](CC1CCCCC1)C(=O)N[C@@H](CC(N)=O)C(=O)N[C@@H](CCCCN)C(=O)NC(C)(C)C(=O)N[C@H](C(=O)N[C@@H](CCCNC(=N)N)C(=O)N[C@@H](CCC(N)=O)C(=O)N[C@@H](CCCNC(=N)N)C(=O)N[C@@H](CC1CCCCC1)C(N)=O)[C@@H](C)O) [compound No. 204] | 16 |
